Source: patent US6475791B1, “Uses for DNA structure-specific recognition protein” (Massachusetts Institute of Technology, priority 1988, dated 2002)

How the values were obtained:
[1] = test system: h-mtTFA (mitochondrial transcription factor A) (Homo sapiens); experiment: inhibition
HMG1 = experiment: inhibition; conditions: cisplatin 1,2-d(GpG) intrastrand crosslink; inhibition of excision repair by HeLa CFE at 1 uM HMG1 (20% at 0.5 uM); 8 mM MgCl2, 2 mM ATP, 30 C
[2] = test system: cellular SSRP in human (HeLa) and hamster (V79) cell extracts; conditions: cited from earlier work
[3] = test system: yeast ixr-1 null mutant strain; conditions: Brown et al. (1993); cited from earlier work
[4] = test system: cisplatin 1,3-d(GTG) intrastrand adduct (1,3-GTG), excision by human excinuclease; experiment: Exinuclease excision repair of the 1,3-intrastrand cisplatin lesion by HeLa cell-free extract, with or without HMG-box protein; assay type: biochemical; conditions: for percent inhibition of repair, 1,3-GTG adduct: 30 min, 30° C, average of two experiments
Method: (§1) Exinuclease substrates with defined cisplatin lesions Nucleic acid fragments (oligomers) bearing a 1,2-d(G^G) or a 1,3-d(GTG) cisplatin crosslink at a defined site were prepared essentially according to the method of Shi et al. (1987), 15 Nucleic Acids Res. 6843, by ligation of a mixture of a cisplatin-lesioned dodecamer with seven other oligonucleotides to produce 156 bp fragments. Prior to ligation, lesioned dodecamers were labeled with [γ-^32P]ATP such that the detectable radiolabel would be located at the 4th phosphodiester bond 5′ to the 1,3-intrastrand d(GTG) lesion, or the 5th phosphodiester bond 5′ to the 1,2-intrastrand d(G^G) lesion. Thus, the radiolabel would be included in the 27-29 nucleotide fragment spanning the cisplatin lesion that would be released by exinuclease. Full length (156 bp) exinuclease substrate oligomers were isolated on a 5% polyacrylamide/8 M urea denaturing gel and reannealed.
(§2) Exinuclease reaction. The excision reaction buffer contained 40 mM Hepes, pH 7.9, 80 mM KCl, 8 mM MgCl2, 2 mM ATP, 20 μM of each dNTP, 1 mM dithiothreitol, 0.3 mM EDTA, 6.8% (v/v) glycerol, and 200 μg/ml bovine serum albumin. The reaction mixture (50 μl) contained 100 μg of CFE (in cases of complementation, 50 μg of each of the XP CFE) and 30 pM DNA substrate (specific activity 7000 Ci/mmol), plus 250 ng pBR322 as carrier DNA. The excision reaction was carried out varying lengths of time at 30° C. Following proteinase K digestion, DNA exinuclease reaction products were extracted by phenol/chloroform and precipitated with ethanol. Equal amounts of DNA were loaded onto each lane.
(§3) The radiolabeled substrates bearing specific 1,2- and 1,3-intrastrand cisplatin lesions and the HeLa cell-free extract described above in Example 1 were used.
(§4) Gel Mobility Shift Assay. The 25 μl reaction mixtures contained 30 pM substrate and 0, 1, 2, 4 or 8 μM HMG1. Mixtures were incubated at 30° C. for 10 min. Samples (1.5 μl) of the mixtures were withdrawn and adjusted to 15% (v/v) glycerol, and electrophoretically resolved on a 5% native polyacrylamide gel. Results were visualized by autoradiography.
(§5) Exinuclease reaction in the presence of HMG1. Following withdrawal of the above samples for gel mobility shift analysis, 50 μg of HeLa CFE was added to each of the reaction mixtures and incubation was continued for 30 min at 30° C. as described in Example 1. Reactions were stopped and DNA reaction products were retrieved and analyzed as described in Example 2.
(§6) An exinuclease inhibition study was carried out generally as described in Example 3, using 0, 0.5 or 1.0 μM concentrations of HMG1 or h-mtTFA in parallel incubations.

[5] = test system: cisplatin 1,2-d(G^G) intrastrand adduct (1,2-GG), excision by human excinuclease; experiment: Exinuclease excision repair of the 1,2-intrastrand cisplatin lesion by HeLa cell-free extract, with or without HMG-box protein; assay type: biochemical; conditions: for percent inhibition of repair, 1,2-GG adduct: 30 min, 30° C, average of two experiments
Method: as §1, §2, §3, §4, §5, §6

[6] = 90 min, HeLa CFE, no inhibitor, over 20 independent assays

156 bp duplex with site-specific cisplatin 1,2-d(GpG) intrastrand crosslink
activity ([1]; cisplatin 1,2-d(GpG) intrastrand crosslink, inhibition of excision repair at 0.5 uM h-mtTFA (100% at 1 uM)): 95 % inhibition
activity (HMG1): 40 % inhibition

156 bp duplex with site-specific cisplatin 1,3-d(GTG) intrastrand crosslink
activity ([1]; cisplatin 1,3-d(GpTpG) intrastrand crosslink, inhibition of excision repair at 1 uM h-mtTFA (40% at 0.5 uM)): 75 % inhibition

[Cl-].[NH-]CC[N-]CC[NH-].[Pt+4] [chloro(diethylenetriamine)platinum(II)]
cellular SSRP binding to double stranded probe DNA bearing lesions produced by the compound [2]: did not bind

NC1CCCCC1N.[Cl][Pt][Cl] (stereo not drawn) [cis-dichloro(1,2-diaminocyclohexane)platinum(II)]
cellular SSRP binding to double stranded probe DNA bearing lesions produced by the compound [2]: bound

NCCN.[Cl][Pt][Cl] [cis-dichloro(ethylenediamine)platinum(II)]
cellular SSRP binding to double stranded probe DNA bearing lesions produced by the compound [2]: bound

N.N.[Cl][Pt][Cl] [cisplatin, cis-diamminedichloroplatinum(II), reference compound]
cellular SSRP binding to double stranded probe DNA bearing lesions produced by the compound [2]: bound
sensitivity of ixr-1 null yeast to cisplatin killing relative to parent (wildtype Ixr-1) strain [3]: two-fold less sensitive
range of excision of the 1,3-d(GTG) crosslink [4, 6]: 2.3-8%
range of excision of the 1,2-d(G^G) crosslink [5, 6]: 1-8%

N.N.[Cl][Pt+2][Cl] [transplatin]
cellular SSRP binding to double stranded probe DNA bearing lesions produced by the compound [2]: did not bind

B1: HMG1: Recombinant HMG1 protein purified from an E. coli overproducing strain; HMG domain protein (protein, UniProt P09429 1-215, looked up)
High mobility group protein B1: MGKGDPKKPRGKMSSYAFFVQTCREEHKKKHPDASVNFSEFSKKCSERWKTMSAKEKGKFEDMAKADKARYEREMKTYIPPKGETKKKFKDPNAPKRPPSAFFLFCSEYRPKIKGEHPGLSIGDVAKKLGEMWNNTAADDKQPYEKKAAKLKEKYEKDIAAYRAKGKPDAAKKGVVKAEKSKKKKEEEEDEEDEEDEEEEEDEEDEDEEEDDDDE
percent inhibition of repair, 1,3-GTG adduct ([4]; 0.5 μM protein, HeLa CFE): 0%
percent inhibition of repair, 1,3-GTG adduct ([4]; 1 μM protein, HeLa CFE): 0%
effect on excision of the 1,3-crosslink ([4]; HMG1 concentrations up to about 4 μM, inhibited at higher concentrations, FIG. 5): modestly stimulated
percent inhibition of repair, 1,2-GG adduct ([5]; 1 μM protein, HeLa CFE): 40%
effect on excision of the cisplatin 1,2-intrastrand crosslink ([5]; escalating concentrations of purified HMG1 (0-8 μM), FIG. 5): monotonically inhibited

B2: h-mtTFA: human mitochondrial transcription factor A, an HMG domain protein (protein, UniProt Q00059 43-246, looked up)
Transcription factor A, …: SSVLASCPKKPVSSYLRFSKEQLPIFKAQNPDAKTTELIRRIAQRWRELPDSKKKIYQDAYRAEWQVYKEEISRFKEQLTPSQIMSLEKEIMDKHLKRKAMTKKKELTLLGKPKRPRSAYNVYVAERFQEAKGDSPQEKLKTVKENWKNLSDSEKELYIQHAKEDETRYHNEMKSWEEQMIEVGRKDLLRRTIKKQRKYGAEEC
percent inhibition of repair, 1,3-GTG adduct ([4]; 0.5 μM protein, HeLa CFE): 40%
percent inhibition of repair, 1,3-GTG adduct ([4]; 1 μM protein, HeLa CFE): 75%
percent inhibition of repair, 1,2-GG adduct ([5]; 0.5 μM protein, HeLa CFE): 95%
percent inhibition of repair, 1,2-GG adduct ([5]; 1 μM protein, HeLa CFE): 100%
